The values below come from the DeepSol protein solubility set.

The nature of this data set: soluble on expression in E. coli; label from the status in PepcDB or PDB records.
For “AAAKPADKALQAQLPEMALPREAAPRLDGLAAVLPQIHPAEAGKPAESFSLALPPSQPESWSGKLQAALGERLQAMPAQNMDRATLRLDPPSLGTLEISLRHQAGALTVELTASHGEVVRQLQGIGEALRQDLGGRQYTQVAVEVREGM”, the “soluble on expression in E. coli” value is “not soluble”.

With “AAGTVFTTVEDLGSKILLTCSLNDSATEVTGHRWLKGGVVLKEDALPGQKTEFKVDSDDQWGEYSCVFLPEPMGTANIQLHGPPRVKAVKSSEHINEGETAMLVCKSESVPPVTDWAWYKITDSEDKALMNGSESRFFVSSSQGRSELHIENLNMEADPGQYRCNGTSSKGSDQAIITLRVRSH”, the “soluble on expression in E. coli” value was “soluble”. For “AASDSAQLKSAREDIKELLKTKFCHPIMVRLGWHDAGTYNKNIEEWPQRGGANGSLRFDVELKHGANAGLVNALNLLKPIKDKYSGVTYADLFQLASATAIEEAGGPKIPMKYGRVDVTEPEQCPEEGRLPDAGPPSPAQHLRDVFYRMGLNDKEIVALSGAHTLGRSRPDRSGWGKPETKYTKDGPGAPGGQSWTAQWLKFDNSYFKDIKERRDEDLLVLPTDAALFEDPSFKVYAEKYAADPEAFFKDYAEAHAKLSNLGAKFGPAEGFSLEGSPAGAAPEKFVAAKYSTGKD” the value was “soluble”; for “AATTGYDAVDDLLHYHERGNGIQINGKDSFSNEQAGLFITRENQTWNGYKVFGQPVKLTFSFPDYKFSSTNVAGDTGLSKFSAEQQQQAKLSLQSWADVANITFTEVAAGQKANITFGNYSQDRPGHYDYGTQAYAFLPNTIWQGQDLGGQTWYNVNQSNVKHPATEDYGRQTFTHEIGHALGLSHPGDYNAGEGNPTYNDVTYAEDTRQFSLMSYWSETNTGGDNGGHYAAAPLLDDIAAIQHLYGANLSTRTGDTVYGFNSNTGRDFLSTTSNSQKVIFAAWDAGGNDTFDFSGYTANQRINLNEKSFSDVGGLKGNVSIAAGVTIENAIGGSGNDVIVGNAANNVLKGGAGNDVLFGGGGADELWGGAGKDIFVFSAASDSAPGASDWIRDFQKGIDKIDLSFFNKEANSSDFIHFVDHFSGTAGEALLSYNASSNVTDLSVNIGGHQAPDFLVKIVGQVDVATDFIV”, “soluble”; for “ADNEEDVEAEEEYTELTDISGVGPSKAESLREAGFESVEDVRGADQSALADVSGIGNALAARIKADVGGLEVESETEAEVEEEGGEEAPDEDVETELQARGLTEKTPDLSDEDARLLTQRHRVGKPQFNRQDHHKKKRVSTSWRKPRGQLSKQRRGIKGKGDTVEAGFRSPTAVRGKHPSGFEEVRVHNVDDLEGVDGDTEAVRIASKVGARKRERIEEEAEDAGIRVLNPTYVEVEVSE”, “soluble”. For “ADPALADVCRTKLPSQAQDTLALIAKNGPYPYNRDGVVFENRESRLPKKGNGYYHEFTVVTPGSNDRGTRRVVTGGYGEQYWSPDHYATFQEIDPRC” the value was “soluble”; for “AEALAAGQRRIAKGERDFKDRVGFLRGRARPASTLITRFIADHQGHREGPDGLRWGVESICTQLTELGVPIAPSTYYDHINREPSRRELRDGELKEHISRVHAANYGVYGARKVWLTLNREGIEVARCTVERLMTKLGLSGTTRGKARRTTIADPATARPADLVQRRFGPPAPNRLWVADLTYVSTWAGFAYVAFVTDAYARRILGWRVASTMATSMVLDAIEQAIWTRQQEGVLDLKDVIHHTDRGSQYTSIRFSERLAEAGIQPSVGAVGSSYDNALAETINGLYKTELIKPGKPWRSIEDVELATARWVDWFNHRRLYQYCGDVPPVELEAAYYAQRQRPAAG”, “soluble”; for “AEEELETPTPTQRGEAESRGDGLVDVMWEYKWENTGDAELYGPFTSAQMQTWVSEGYFPDGVYCRKLDPPGGQFYNSKRIDFDLYT”, “soluble”. For “AEEHEHHHHDEEHAHHHHHEGSEVDEYGISTFVYYRRPAFDIHKFDRFVSTQWSRNIIRAKGVCYFSNNRDMSFLFEQAGVQKKLKEAGLWYATAPEEELIEVIRQEPGLLRDWDDKYGDRMQKIVFIGRHLDKEELIRELDECLE” the value was “not soluble”. For “AEFKHVFVCVQDRPPGHPQGSCAQRGSREVFQAFMEKIQTDPQLFMTTVITPTGSMNACMMGPVVVVYPDGVWYGQVKPEDVDEIVEKHLKGGEPVERLVISKGKPPGMF”, the “soluble on expression in E. coli” value is “soluble”. For “AEKRIGLMLFGKGNIGSRWLELFAREQTTLSARTGFEFILAGVVDSKRSLLNYDGLDASRALAFFNDEAVEQDEESLFLWMRAHPYDDLVVLDVTASEQLADQYLDFASHGFHVISANKLAGASSSDKYRQIHDAFEKTGRHWLYNATVGAGLPVNHTVRDLIDSGDTILGLSGIFSGTLSWLFLQ” the value was “not soluble”. For “AELTALESLIEMGFPRGRAEKALALTGNQGIEAAMDWLMEHEDDPDVDEPL” the value was “soluble”; for “AEVRPPFTYASLIRQAILESPEKQLTLNEIYNWFTRMFPYFRRNAATWKNAVRHNLSLHKYFVRVENVKGAVWTVDEVEFQKRRPQK”, “soluble”. For “AFTFLHTADLHLDAPLRAVALRDPELAAEIGVASRTAFSRIVDLCLAEAVAFLVIAGDLWDGTYSSTKTPRFLKQELLRLEAAGIGCYILRGNHDALARQTGELEAPANTTVFGARPSTVELSIDGQPVALHGLSFREPHAPESLLPRYPAPKPGAFNLGLMHTSLNGSPGHDPYAPCSLAELEAHGYDYWALGHIHRRFVHRGRATVVMPGTPQGRDIGEAGAASVTLVQVGDDGAVTLEERSVA” the value was “not soluble”; for “AGFMVPTTNTAGWGRAMAGGSLFPNDPSAAFNNPAAMAFIDKRIAQLTVNYADIDIKYNGDAYDYQGNPMTGGYQDGPGTPELGTNDGGQAGFGAWLPTGFLVVPINDRFAFGLSQVVPMGMRSTWDPNWKGRDFAVDTKIETIGLTGSLSFKVNDNFSLGAGVIIQRTSGFVSQNLDLYASAANSPGMGGIPFPASNSSALMRVKVDNTSPGFFAGAVWKPTDRDTLGFAYHAKIRNKLKGHYNLYDHDGGLTEGAIEGGTPGLAYPGLDLRMGASASARLDIPAYASLDWVHQFNDRLSLGASATWTEWSSFQDLTLKSHGNTIVSIPYTYRNTWTLAVGGDYKVTDQWTMRAGVAYDQTPTHNATRDPRIPDGDRYFASLGAGYRFQSMPELSIDAAYSRQFVKEVPLKTVNQDRLGGGRLDGRATSKGQVFSLSATYDFHHHHHHHH”, “soluble”. For the sequence “AGFQLNEFSSSGLGRAYSGEGAIADDAGNVSRAPALITMFDRPTFSAGAVYIDPDVNISGTSPSGRSLKADNIAPTAWVPNMHFVAPINDQFGWGASITSNYGLATEFNDTYAGGSVGGTTDLETMNLNLSGAYRLNNAWSFGLGFNAVYARAKIERFAGDLGQLVAGQIMQSPAGQTQQGQALAATANGIDSNTKTAHLNGNQWGFGWNAGILYELDKNNRYALTYRSEVKIDFKGNYSSDLNRAFNNYGLPIPTATGGATQSGYLTLNLPEMWEVSGYNRVDPQWAIHYSLAYTSWSQFQQLKATSTSGDTLFQKHEGFKDAYRIALGTTYYYDDNWTFRTGIAFDDSPVPAQNRSISIPDQDRFWLSAGTTYAFNKDASVDVGVSYMHGQSVKINEGPYQFESEGKAWLFGTNFNYAFHHHHHH”, the “soluble on expression in E. coli” value was “soluble”. Turning to “AGGGYWHTSGREILDANNVPVRIAGINWFGFETCNYVVHGLWSRDYRSMLDQIKSLGYNTIRLPYSDDILKPGTMPNSINFYQMNQDLQGLTSLQVMDKIVAYAGQIGLRIILDRHRPDCSGQSALWYTSSVSEATWISDLQALAQRYKGNPTVVGFDLHNEPHDPACWGCGDPSIDWRLAAERAGNAVLSVNPNLLIFVEGVQSYNGDSYWWGGNLQGAGQYPVVLNVPNRLVYSAHDYATSVGPQTWFSDPTFPNNMPGIWNKNWGYLFNQNIAPVWLGEFGTTLQSTTDQTWLKTLVQYLRPTAQYGADSFQWTFWSWNPDSGDTGGILKDDWQTVDTDKDGYLAPIKSSIFDPV”, the “soluble on expression in E. coli” value is on record as “soluble”. For “AGYPPASPSNLSCLMHLTTNSLVCQWEPGPETHLPTSFILKSFRSRADCQYQGDTIPDCVAKKRQNNCSIPRKNLLLYQYMAIWVQAENMLGSSESPKLCLDPMDVVKLEPPMLQALDIGPDVVSHQPGCLWLSWKPWKPSEYMEQECELRYQPQLKGANWTLVFHLPSSKDQFELCGLHQAPVYTLQMRCIRSSLPGFWSPWSPGLQLRPTMKA” the value was “soluble”.
